Experimental data reported in PMC7674511, “The Chaperone BAG6 Regulates Cellular Homeostasis between Autophagy and Apoptosis by Holding LC3B” (iScience, 2020).
No end group written: not given here.

Target: LC3B-I (UniProt Q9GZQ8 1-120)
Assay: fluorescence polarisation; fluorescence anisotropy; peptide at 1 μM, LC3B-I or Pro-LC3B added from 0 to 50 μM; Kd by nonlinear curve fitting; three independent experiments
Settings: both partners purified

B1: BAG6 LIR1 peptide (residues 124-143) (peptide)
peptide: VHDRNANSYVMVGTFNLPSD
modifications: also: FITC label, position not given here
notes: BAG6, 20-aa peptide encompassing the LIR1 motif (132-135 YVMV), residues 124-143; it has the same name there; also called wild-type BAG6 LIR-1 peptide; source: synthetic peptide
In the case of B1, the Kd is reported as 22.2 µM.
